# Data: US20230406935A1 (F STAR THERAPEUTICS, published 2023)
# B1: Fcab FS17-33-116 with LALA mutation (designed binder)
# chain: TCPPCPAPEAAGGPSVFLFPPKPKDTLMISRTPEVTCVVVDVSHEDPEVKFNWYVDGVEVHNAKTKPREEQYNSTYRVVSVLTVLHQDWLNGKEYKCKVSNKALPAPIEKTISKAKGQPREPQVYTLPPSRDESGYWVSLTCLVKGFYPSDIVVEWESNGEPQYWAKTTPPVLDSDGSFFLYSKLTVSNWRWQMDDFSCSVMHEALHNHYTQKSLSLSPGK
# B2: Fcab FS17-33-296 with LALA mutation (designed binder)
# chain: TCPPCPAPEAAGGPSVFLFPPKPKDTLMISRTPEVTCVVVDVSHEDPEVKFNWYVDGVEVHNAKTKPREEQYNSTYRVVSVLTVLHQDWLNGKEYKCKVSNKALPAPIEKTISKAKGQPREPQVYTLPPSRDESGYWVSLTCLVKGFYPSDIVVEWESNGEPQYWAKTTPPVLDSDGSFFLYSKLTVSNWRWQVDDFSCSVMHEALHNHYTQKSLSLSPGK
# B3: Fcab FS17-33-289 with LALA mutation (designed binder)
# chain: TCPPCPAPEAAGGPSVFLFPPKPKDTLMISRTPEVTCVVVDVSHEDPEVKFNWYVDGVEVHNAKTKPREEQYNSTYRVVSVLTVLHQDWLNGKEYKCKVSNKALPAPIEKTISKAKGQPREPQVYTLPPSRDESGYWVSLTCLVKGFYPSDIVVEWESNGEPQYWAKTTPPVLDSDGSFFLYSKLTVSNWRWQLDDFSCSVMHEALHNHYTQKSLSLSPGK
# B4: Fcab FS17-33-334 with LALA mutation (designed binder)
# chain: TCPPCPAPEAAGGPSVFLFPPKPKDTLMISRTPEVTCVVVDVSHEDPEVKFNWYVDGVEVHNAKTKPREEQYNSTYRVVSVLTVLHQDWLNGKEYKCKVSNKALPAPIEKTISKAKGQPREPQVYTLPPSRDESGYWVSLTCLVKGFYPSDIAVEWESNGEPQYWAKTTPPVLDSDGSFFLYSKLTVSNWRWQLDDFSCSVMHEALHNHYTQKSLSLSPGK
# B5: Fcab FS17-33-288 with LALA mutation (designed binder)
# chain: TCPPCPAPEAAGGPSVFLFPPKPKDTLMISRTPEVTCVVVDVSHEDPEVKFNWYVDGVEVHNAKTKPREEQYNSTYRVVSVLTVLHQDWLNGKEYKCKVSNKALPAPIEKTISKAKGQPREPQVYTLPPSRDESGYWVSLTCLVKGFYPSDIVVEWESNGEPQYWAKTTPPVLDSDGSFFLYSKLTVSNWRWQIDDFSCSVMHEALHNHYTQKSLSLSPGK
# B6: Fcab FS17-33-289 (designed binder)
# chain: TCPPCPAPELLGGPSVFLFPPKPKDTLMISRTPEVTCVVVDVSHEDPEVKFNWYVDGVEVHNAKTKPREEQYNSTYRVVSVLTVLHQDWLNGKEYKCKVSNKALPAPIEKTISKAKGQPREPQVYTLPPSRDESGYWVSLTCLVKGFYPSDIVVEWESNGEPQYWAKTTPPVLDSDGSFFLYSKLTVSNWRWQLDDFSCSVMHEALHNHYTQKSLSLSPGK
# B7: Fcab FS17-33-296 (designed binder)
# chain: TCPPCPAPELLGGPSVFLFPPKPKDTLMISRTPEVTCVVVDVSHEDPEVKFNWYVDGVEVHNAKTKPREEQYNSTYRVVSVLTVLHQDWLNGKEYKCKVSNKALPAPIEKTISKAKGQPREPQVYTLPPSRDESGYWVSLTCLVKGFYPSDIVVEWESNGEPQYWAKTTPPVLDSDGSFFLYSKLTVSNWRWQVDDFSCSVMHEALHNHYTQKSLSLSPGK
# B8: FS17-33-289AA/HelD1.3 mock mAb^2 (bispecific antibody, human IgG1, kappa, L234A L235A)
# heavy: QVQLQESGPGLVRPSQTLSLTCTVSGSTFSGYGVNWVRQPPGRGLEWIGMIWGDGNTDYNSALKSRVTMLVDTSKNQFSLRLSSVTAADTAVYYCARERDYRLDYWGQGSLVTVSSASTKGPSVFPLAPSSKSTSGGTAALGCLVKDYFPEPVTVSWNSGALTSGVHTFPAVLQSSGLYSLSSVVTVPSSSLGTQTYICNVNHKPSNTKVDKKVEPKSCDKTHTCPPCPAPEAAGGPSVFLFPPKPKDTLMISRTPEVTCVVVDVSHEDPEVKFNWYVDGVEVHNAKTKPREEQYNSTYRVVSVLTVLHQDWLNGKEYKCKVSNKALPAPIEKTISKAKGQPREPQVYTLPPSRDESGYWVSLTCLVKGFYPSDIVVEWESNGEPQYWAKTTPPVLDSDGSFFLYSKLTVSNWRWQLDDFSCSVMHEALHNHYTQKSLSLSPGK
# light: DIQMTQSPASLSASVGETVTITCRASGNIHNYLAWYQQKQGKSPQLLVYNAKTLADGVPSRFSGSGSGTQYSLKINSLQPEDFGSYYCQHFWSTPRTFGGGTKLEIKRTVAAPSVFIFPPSDEQLKSGTASVVCLLNNFYPREAKVQWKVDNALQSGNSQESVTEQDSKDSTYSLSSTLTLSKADYEKHKVYACEVTHQGLSSPVTKSFNRGEC
# notes: also called F17-33-289AA/HelD1.3; F17-33-289AA/HELD1.3
# B9: FS17-33-289/HelD1.3 mock mAb^2 (without LALA) (bispecific antibody, human IgG1, kappa)
# heavy: QVQLQESGPGLVRPSQTLSLTCTVSGSTFSGYGVNWVRQPPGRGLEWIGMIWGDGNTDYNSALKSRVTMLVDTSKNQFSLRLSSVTAADTAVYYCARERDYRLDYWGQGSLVTVSSASTKGPSVFPLAPSSKSTSGGTAALGCLVKDYFPEPVTVSWNSGALTSGVHTFPAVLQSSGLYSLSSVVTVPSSSLGTQTYICNVNHKPSNTKVDKKVEPKSCDKTHTCPPCPAPELLGGPSVFLFPPKPKDTLMISRTPEVTCVVVDVSHEDPEVKFNWYVDGVEVHNAKTKPREEQYNSTYRVVSVLTVLHQDWLNGKEYKCKVSNKALPAPIEKTISKAKGQPREPQVYTLPPSRDESGYWVSLTCLVKGFYPSDIVVEWESNGEPQYWAKTTPPVLDSDGSFFLYSKLTVSNWRWQLDDFSCSVMHEALHNHYTQKSLSLSPGK
# light: DIQMTQSPASLSASVGETVTITCRASGNIHNYLAWYQQKQGKSPQLLVYNAKTLADGVPSRFSGSGSGTQYSLKINSLQPEDFGSYYCQHFWSTPRTFGGGTKLEIKRTVAAPSVFIFPPSDEQLKSGTASVVCLLNNFYPREAKVQWKVDNALQSGNSQESVTEQDSKDSTYSLSSTLTLSKADYEKHKVYACEVTHQGLSSPVTKSFNRGEC
# B10: FS17-33-296/HelD1.3 mock mAb^2 (without LALA) (bispecific antibody, human IgG1, kappa)
# heavy: QVQLQESGPGLVRPSQTLSLTCTVSGSTFSGYGVNWVRQPPGRGLEWIGMIWGDGNTDYNSALKSRVTMLVDTSKNQFSLRLSSVTAADTAVYYCARERDYRLDYWGQGSLVTVSSASTKGPSVFPLAPSSKSTSGGTAALGCLVKDYFPEPVTVSWNSGALTSGVHTFPAVLQSSGLYSLSSVVTVPSSSLGTQTYICNVNHKPSNTKVDKKVEPKSCDKTHTCPPCPAPELLGGPSVFLFPPKPKDTLMISRTPEVTCVVVDVSHEDPEVKFNWYVDGVEVHNAKTKPREEQYNSTYRVVSVLTVLHQDWLNGKEYKCKVSNKALPAPIEKTISKAKGQPREPQVYTLPPSRDESGYWVSLTCLVKGFYPSDIVVEWESNGEPQYWAKTTPPVLDSDGSFFLYSKLTVSNWRWQVDDFSCSVMHEALHNHYTQKSLSLSPGK
# light: DIQMTQSPASLSASVGETVTITCRASGNIHNYLAWYQQKQGKSPQLLVYNAKTLADGVPSRFSGSGSGTQYSLKINSLQPEDFGSYYCQHFWSTPRTFGGGTKLEIKRTVAAPSVFIFPPSDEQLKSGTASVVCLLNNFYPREAKVQWKVDNALQSGNSQESVTEQDSKDSTYSLSSTLTLSKADYEKHKVYACEVTHQGLSSPVTKSFNRGEC
# B11: FS17-33-296AA/HelD1.3 mock mAb^2 (bispecific antibody, human IgG1, kappa, L234A L235A)
# heavy: QVQLQESGPGLVRPSQTLSLTCTVSGSTFSGYGVNWVRQPPGRGLEWIGMIWGDGNTDYNSALKSRVTMLVDTSKNQFSLRLSSVTAADTAVYYCARERDYRLDYWGQGSLVTVSSASTKGPSVFPLAPSSKSTSGGTAALGCLVKDYFPEPVTVSWNSGALTSGVHTFPAVLQSSGLYSLSSVVTVPSSSLGTQTYICNVNHKPSNTKVDKKVEPKSCDKTHTCPPCPAPEAAGGPSVFLFPPKPKDTLMISRTPEVTCVVVDVSHEDPEVKFNWYVDGVEVHNAKTKPREEQYNSTYRVVSVLTVLHQDWLNGKEYKCKVSNKALPAPIEKTISKAKGQPREPQVYTLPPSRDESGYWVSLTCLVKGFYPSDIVVEWESNGEPQYWAKTTPPVLDSDGSFFLYSKLTVSNWRWQVDDFSCSVMHEALHNHYTQKSLSLSPGK
# light: DIQMTQSPASLSASVGETVTITCRASGNIHNYLAWYQQKQGKSPQLLVYNAKTLADGVPSRFSGSGSGTQYSLKINSLQPEDFGSYYCQHFWSTPRTFGGGTKLEIKRTVAAPSVFIFPPSDEQLKSGTASVVCLLNNFYPREAKVQWKVDNALQSGNSQESVTEQDSKDSTYSLSSTLTLSKADYEKHKVYACEVTHQGLSSPVTKSFNRGEC
# notes: also called F17-33-296AA/HelD1.3; F17-33-296AA/HELD1.3
# B12: FS17-33-288AA/HelD1.3 mock mAb^2 (bispecific antibody, human IgG1, kappa, L234A L235A)
# heavy: QVQLQESGPGLVRPSQTLSLTCTVSGSTFSGYGVNWVRQPPGRGLEWIGMIWGDGNTDYNSALKSRVTMLVDTSKNQFSLRLSSVTAADTAVYYCARERDYRLDYWGQGSLVTVSSASTKGPSVFPLAPSSKSTSGGTAALGCLVKDYFPEPVTVSWNSGALTSGVHTFPAVLQSSGLYSLSSVVTVPSSSLGTQTYICNVNHKPSNTKVDKKVEPKSCDKTHTCPPCPAPEAAGGPSVFLFPPKPKDTLMISRTPEVTCVVVDVSHEDPEVKFNWYVDGVEVHNAKTKPREEQYNSTYRVVSVLTVLHQDWLNGKEYKCKVSNKALPAPIEKTISKAKGQPREPQVYTLPPSRDESGYWVSLTCLVKGFYPSDIVVEWESNGEPQYWAKTTPPVLDSDGSFFLYSKLTVSNWRWQIDDFSCSVMHEALHNHYTQKSLSLSPGK
# light: DIQMTQSPASLSASVGETVTITCRASGNIHNYLAWYQQKQGKSPQLLVYNAKTLADGVPSRFSGSGSGTQYSLKINSLQPEDFGSYYCQHFWSTPRTFGGGTKLEIKRTVAAPSVFIFPPSDEQLKSGTASVVCLLNNFYPREAKVQWKVDNALQSGNSQESVTEQDSKDSTYSLSSTLTLSKADYEKHKVYACEVTHQGLSSPVTKSFNRGEC
# notes: also called F17-33-288AA/HelD1.3; F17-33-288AA/HELD1.3
# B13: FS17-33-334AA/HelD1.3 mock mAb^2 (bispecific antibody, human IgG1, kappa, L234A L235A)
# heavy: QVQLQESGPGLVRPSQTLSLTCTVSGSTFSGYGVNWVRQPPGRGLEWIGMIWGDGNTDYNSALKSRVTMLVDTSKNQFSLRLSSVTAADTAVYYCARERDYRLDYWGQGSLVTVSSASTKGPSVFPLAPSSKSTSGGTAALGCLVKDYFPEPVTVSWNSGALTSGVHTFPAVLQSSGLYSLSSVVTVPSSSLGTQTYICNVNHKPSNTKVDKKVEPKSCDKTHTCPPCPAPEAAGGPSVFLFPPKPKDTLMISRTPEVTCVVVDVSHEDPEVKFNWYVDGVEVHNAKTKPREEQYNSTYRVVSVLTVLHQDWLNGKEYKCKVSNKALPAPIEKTISKAKGQPREPQVYTLPPSRDESGYWVSLTCLVKGFYPSDIAVEWESNGEPQYWAKTTPPVLDSDGSFFLYSKLTVSNWRWQLDDFSCSVMHEALHNHYTQKSLSLSPGK
# light: DIQMTQSPASLSASVGETVTITCRASGNIHNYLAWYQQKQGKSPQLLVYNAKTLADGVPSRFSGSGSGTQYSLKINSLQPEDFGSYYCQHFWSTPRTFGGGTKLEIKRTVAAPSVFIFPPSDEQLKSGTASVVCLLNNFYPREAKVQWKVDNALQSGNSQESVTEQDSKDSTYSLSSTLTLSKADYEKHKVYACEVTHQGLSSPVTKSFNRGEC
# Target: Human PD-L1 expressed on cells (human, UniProt Q9NZQ7 19-290)
# Sequence (Q9NZQ7 19-290 limits assumed): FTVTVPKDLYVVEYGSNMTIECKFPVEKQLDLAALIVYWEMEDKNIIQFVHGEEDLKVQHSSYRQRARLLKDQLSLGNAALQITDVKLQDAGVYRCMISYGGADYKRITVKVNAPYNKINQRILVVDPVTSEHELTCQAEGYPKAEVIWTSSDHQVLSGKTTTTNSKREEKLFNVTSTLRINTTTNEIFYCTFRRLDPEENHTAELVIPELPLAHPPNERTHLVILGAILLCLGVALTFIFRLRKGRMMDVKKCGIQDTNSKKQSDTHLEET
# Experiment: cell-based or functional assay
row,Binder,SEB assay (IFNγ release) EC50 [nM]
1,B1,0.1
2,B2,0.124
3,B3,0.108
4,B4,0.144
5,B5,0.0899
6,B6,0.0886
7,B7,0.0869
8,B8,0.566
9,B9,0.969
10,B10,1.71
11,B11,1.77
12,B12,1.02
13,B13,0.761
